Results on one molecule are retold here after patent US20230192842A1 (published 2023).

Holding throughout (assay): flow cytometry, % 906-mAb-PE positive of live cells
(In general: In flow cytometry, cells or beads pass a laser one at a time.)

Assay [1] deals with human CLDN3 F34A mutant on RKO KO cells (human) (UniProt O15551).
Assay [2] has as its target human CLDN3 I39A mutant on RKO KO cells (human) (UniProt O15551).
Assay [3] addresses human CLDN3 I45A mutant on RKO KO cells (human) (UniProt O15551).
Assay [4] has as its target human CLDN3 K156A mutant on RKO KO cells (human) (UniProt O15551).
The target in assay [5] is human CLDN3 N148A mutant on RKO KO cells (human) (UniProt O15551).
For assay [6], the target named is human CLDN3 P149A mutant on RKO KO cells (human) (UniProt O15551).
The target of assay [7] is human CLDN3 P152A mutant on RKO KO cells (human) (UniProt O15551).
For assay [8], the target named is human CLDN3 Q155A mutant on RKO KO cells (human) (UniProt O15551).
Assay [9] deals with human CLDN3 Q43A mutant on RKO KO cells (human) (UniProt O15551).
Assay [10] deals with human CLDN3 R157A mutant on RKO KO cells (human) (UniProt O15551).
Assay [11] has as its target human CLDN3 S42A mutant on RKO KO cells (human) (UniProt O15551).

human CLDN3 Q43A mutant on RKO KO cells (human), sequence (O15551 whole entry Q43A): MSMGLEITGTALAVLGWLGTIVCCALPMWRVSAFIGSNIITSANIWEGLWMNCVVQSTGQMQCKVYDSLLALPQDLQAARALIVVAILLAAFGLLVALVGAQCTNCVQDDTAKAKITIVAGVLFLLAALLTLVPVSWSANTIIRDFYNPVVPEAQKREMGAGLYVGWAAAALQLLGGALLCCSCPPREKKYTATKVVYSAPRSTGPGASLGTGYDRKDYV
human CLDN3 Q155A mutant on RKO KO cells (human), sequence (O15551 whole entry Q155A): as the sequence (O15551 whole entry Q43A) above, with A43Q, Q155A counted along it
human CLDN3 N148A mutant on RKO KO cells (human), sequence (O15551 whole entry N148A): as the sequence (O15551 whole entry Q43A) above, with A43Q, N148A counted along it
human CLDN3 F34A mutant on RKO KO cells (human), sequence (O15551 whole entry F34A): as the sequence (O15551 whole entry Q43A) above, with F34A, A43Q counted along it
human CLDN3 K156A mutant on RKO KO cells (human), sequence (O15551 whole entry K156A): as the sequence (O15551 whole entry Q43A) above, with A43Q, K156A counted along it
human CLDN3 I39A mutant on RKO KO cells (human), sequence (O15551 whole entry I39A): as the sequence (O15551 whole entry Q43A) above, with I39A, A43Q counted along it
human CLDN3 P152A mutant on RKO KO cells (human), sequence (O15551 whole entry P152A): as the sequence (O15551 whole entry Q43A) above, with A43Q, P152A counted along it
human CLDN3 P149A mutant on RKO KO cells (human), sequence (O15551 whole entry P149A): as the sequence (O15551 whole entry Q43A) above, with A43Q, P149A counted along it
human CLDN3 S42A mutant on RKO KO cells (human), sequence (O15551 whole entry S42A): as the sequence (O15551 whole entry Q43A) above, with S42A, A43Q counted along it
human CLDN3 I45A mutant on RKO KO cells (human), sequence (O15551 whole entry I45A): as the sequence (O15551 whole entry Q43A) above, with A43Q, I45A counted along it
human CLDN3 R157A mutant on RKO KO cells (human), sequence (O15551 whole entry R157A): as the sequence (O15551 whole entry Q43A) above, with A43Q, R157A counted along it

B1: 906-mAb (anti-CLDN3 906-mAb, monoclonal antibody version of the scFv of 906-009_LNGFR) (antibody, V domains shown)
VH: QVQLVQSGAEVKKPGSSVKVSCKASGYTFTNYWVHWVRQAPGQGLEWMGRIEPNSSGSQYNEKFKNRVTITADKSTSTAYMELSSLRSEDTAVYYCARGVMVPLDYWGQGTLVTVSS
VL: DIQMTQSPSSLSASVGDRVTITCKASQDINRYIAWYQQKPGKAPKLLIHYTSTLQPGVPSRFSGSGSGTDFTLTISSLQPEDFATYYCLQYETLYSFGQGTKLEIK
Turning to B1, the Change in % Parent (906-mAb-PE positive cells) vs CLDN3 WT in assay [1] is -0.95%; in assay [2] it was 0.1%; in assay [3] it was 0.05%; in [4] it was 0.05%; in assay [5], 0.1%; in assay [6], 0.1%. In addition, the Change in % Parent (906-mAb-PE positive cells) vs CLDN3 WT in assay [7], in assay [8], in assay [9], in [10] and in assay [11] was 0.1% in each case.
